This note sets out measurements from US20150010572A1 (SAMSUNG ELECTRONICS, published 2015).

The target of assay [1] is mutant Ang-2 protein, A449 substituted with alanine (FLAG-tagged at N-terminal) (human) (UniProt O15123). Nature of the assay: ELISA, antibody coated, 250 ng FLAG-tagged mutant Ang-2, anti-FLAG-HRP, OD450 relative to native Ang-2. A general note: An ELISA detects its analyte on a solid surface through an enzyme-linked reagent.
Assay [2] deals with T1, recombinant hAng-2 (C-His, R&D Systems) (human, UniProt O15123 19-496).
T1 construct: Bought protein; also called human Ang-2 protein; not shown: C-terminal His tag
T1 sequence: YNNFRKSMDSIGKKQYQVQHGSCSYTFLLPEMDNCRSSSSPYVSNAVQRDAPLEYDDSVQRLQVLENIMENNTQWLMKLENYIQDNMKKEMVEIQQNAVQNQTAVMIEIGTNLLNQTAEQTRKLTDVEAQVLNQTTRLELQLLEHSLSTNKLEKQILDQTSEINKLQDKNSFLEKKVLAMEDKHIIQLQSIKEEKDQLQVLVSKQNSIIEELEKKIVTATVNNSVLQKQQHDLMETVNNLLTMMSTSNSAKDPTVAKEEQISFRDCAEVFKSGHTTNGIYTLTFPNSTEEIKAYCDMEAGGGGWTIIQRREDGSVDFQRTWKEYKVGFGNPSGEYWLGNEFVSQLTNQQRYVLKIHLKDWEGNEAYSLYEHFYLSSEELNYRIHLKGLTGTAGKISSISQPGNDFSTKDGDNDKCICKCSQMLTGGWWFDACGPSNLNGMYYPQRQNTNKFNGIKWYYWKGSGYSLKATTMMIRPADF
In words: SPR, BIAcore T100; hAng-2 (C-His) captured by anti-His antibody on CM5 chip, antibody flowed. As for the experimental part:
The binding affinities of the above 3 kinds of antibodies to human Ang-2 protein were measured by a SPR technology using a BIAcore T100 (GE Healthcare). The SPR technology uses refractive index change of light which passes a sensor chip according to the state of materials coated onto the sensor chip, and if an antigen or an antibody is flowed onto a chip coated with the antigen or antibody, it causes changes in refractive index due to their binding and Kd values are thus calculated from the measured values.
First, anti-His antibody was immobilized on a CM5 sensor chip (GE healthcare) up to 8,000 RU levels using a pH 5.0 acetate solution and an amine coupling kit (GE Healthcare). A recombinant hAng-2 (C-His, R&D Systems) protein was flowed onto the chip to be captured at 100 to 200 RU levels.

B1: SAIT-Ang-2-AB-m8B3 (antibody, V domains shown)
VH: DVQLQESGPGLVKPSQSLSLSCTVTGYSIASDYAWNWIRQFPGNKVEWMGYINYRGNTDYNPSLKSRSSINRDTSKNQFFLQLNSVTTGDTATYYCARGNFEGAMDYWGQGTSVTVSS
VL: TIVMTQTPKFLLVSAGDRITITCKASQSVSNDVAWYQQKPGQSPKLLIYYASNRYPGVPDRFTGSGYGTDFTFTISTVQAEDLAVYFCQQDYTSPWTFGGGTELEIK
notes: also called KCLRF-BP-00293
With B1, the % at RBD binding (mutant Ang-2 against native Ang-2) in assay [1] came to 88.5%. Also, in assay [2], the Kd is 0.0086 nM.

B2: SAIT-Ang-2-AB-m2E7 (antibody, V domains shown)
VH: DLQLQESGPGLVKPSQSLSLTCTVTGYSITSDYAWNWIRQFPGNKLEWMGYISYSGSTSYNPSLKSRISITRDTSKNQFFLQLNSLTTEDTATYYCARGDYGNYVGPMDYWGQGTSVTVSS
VL: SIVMTQTPKFLLVSAGDRVTITCKASQSVSNDVAWYRQKPGQSPKLLIYYASNRYTGVPDRFTGSGYGTDFTFTISTVQAEDLAVYFCQQDYSSPLTFGARTKLELK
notes: also called KCLRF-BP-00294
As to B2, the % at RBD binding (mutant Ang-2 against native Ang-2) in assay [1] came out at 90.9%. In addition, the Kd in assay [2] came to 30.6 nM.

Broadly, the Kd is the free concentration of one partner at which half of the binding sites on the other are occupied at equilibrium, for simple one-to-one binding.
